For this assay, the target named is endogenous Na+/K+-ATPase β1 (mouse (endogenous in cultured mouse …, UniProt P14094 1-304)). Description: cell-based or functional assay.

From publication PMC7067740, “NDRG2 Protects the Brain from Excitotoxicity by Facilitating Interstitial Glutamate Uptake” (Translational Stroke Research, 2019) come the findings set out here.

B1: endogenous NDRG2 (N-myc downstream regulated gene 2) (natural protein, UniProt Q9QYG0 1-371, looked up)
chain: MAELQEVQITEEKPLLPGQTPETAKEAELAARILLDQGQTHSVETPYGSVTFTVYGTPKPKRPAIFTYHDVGLNYKSCFQPLFRFGDMQEIIQNFVRVHVDAPGMEEGAPVFPLGYQYPSLDQLADMIPCILQYLNFSTIIGVGVGAGAYILSRYALNHPDTVEGLVLINIDPNAKGWMDWAAHKLTGLTSSIPDMILGHLFSQEELSGNSELIQKYRGIIQHAPNLENIELYWNSYNNRRDLNFERGGETTLKCPVMLVVGDQAPHEDAVVECNSKLDPTQTSFLKMADSGGQPQLTQPGKLTEAFKYFLQGMGYMASSCMTRLSRSRTASLTSAASIDGSRSRSRTLSQSSESGTLPSGPPGHTMEVSC
Turning to B1, the “half-life of endogenous Na+/K+-ATPase β1 in astrocytes after TAT-Ctrl treatment, with 100 μM emetine, immunoblot” value came out at 110 min and the “half-life of endogenous Na+/K+-ATPase β1 in astrocytes after TAT-β1(244–263) treatment, with 100 μM emetine, immunoblot” value worked out at 65 min.
